The results in this text go back to the DeepSol protein solubility set.

The series in a line: soluble on expression in E. coli; label from the status in PepcDB or PDB records.
Take “MTSYSLEDFNTPLECAPLARWERKRKEQLDRTSKTPNKTPQGDRFIPNRNVMNIEVSRLNLQQEYYGKENNQNSSSLLDSHMDNVEWNSGKDSPACHHYQSALASSLLQNSYHEEHPQSKILTFKQKAPKPQEGYVNSLKVLYSQNMPQISEQRKRMIRHIPQTPDRILDAPELVDDYYLNLLDWNHENILAVALGSSVYLWNASTGDIQELCNVSQDEMICSVSWVPDGHHLAVGTSMKDVQLWDTQRGRQVRKMHSHSSRVGCLAWNGPILSSGSRDTTIHHHDVRIAQHHVETLRGHEQEVCGLKWNVDGSQLASGGNDNLLMIWDHFHSNQPKYRLDHHHAAVKAIAWCPWQTHLLASGGGTADRTIKFWNTTTGACLQSIDTKSQVCALIWNRHDKEIVSSHGFSQNQLIVWKYPSMVKMAELTGHTSRVLHLSLSPDGQTVVSGAGDETLRFWRVFEASESKLKSSNKTLGHSQKSIMRTCNIR”: the “soluble on expression in E. coli” value is on record as “soluble”.

For “MAAVILESIFLKRSQQKKKTSPLNFKKRLFLLTVHKLSYYEYDFERGRRGSKKGSIDVEKITCVETVVPEKNPPPERQIPRRGEESSEMEQISIIERFPYPFQVVYDEGPLYVFSPTEELRKRWIHQLKNVIRYNSDLVQKYHPCFWIDGQYLCCSQTAKNAMGCQILENRNGSLKPGSSHRKTKKPLPPTPEEDQILKKPLPPEPAAAPVSTSELKKVVALYDYMPMNANDLQLRKGDEYFILEESNLPWWRARDKNGQEGYIPSNYVTEAEDSIEMYEWYSKHMTRSQAEQLLKQEGKEGGFIVRDSSKAGKYTVSVFAKSTGDPQGVIRHYVVCSTPQSQYYLAEKHLFSTIPELINYHQHNSAGLISRLKYPVSQQNKNAPSTAGLGYGSWEIDPKDLTFLKELGTGQFGVVKYGKWRGQYDVAIKMIKEGSMSEDEFIEEAKVMMNLSHEKLVQLYGVCTKQRPIFIITEYMANGCLLNYLREMRHRFQTQQLLEMCKDVCEAMEYLESKQFLHRDLAARNCLVNDQGVVKVSDFGLSRYVLDDEYTSSVGSKFPVRWSPPEVLMYSKFSSKSDIWAFGVLMWEIYSLGKMPYERFTNSETAEHIAQGLRLYRPHLASEKVYTIMYSCWHEKADERPTFKILLSNILDVMDEES”, the “soluble on expression in E. coli” value is listed as “soluble”.

For “MSCFRGDVDFCPECGNILPLPSRLNTITCPRCSFKISVQDFTSQVIKSSVMFNPLDQSNVAVGSAEDAELKGPVIDRKCSRCNKEGMVYHTRQMRSADEGQTVFFTCIHCRFQEKEDS”, the “soluble on expression in E. coli” value is given as “not soluble”.

For “GHMSETYDFLFKFLVIGNAGTGKSCLLHQFIEKKFKDDSNHTIGVEFGSKIINVGGKYVKLQIWDTAGQERFRSVTRSYYRGAAGALLVYDITSRETYNALTNWLTDARMLASQNIVIILCGNKKDLDADREVTFLEASRFAQENELMFLETSALTGENVEEAFVQCARKILNKIESGELDPERMG”, the “soluble on expression in E. coli” value is listed as “soluble”.

Consider “MAHHHHHHMDGEALFNHIASCSETGYLTMEDFVRWMSETATDKGQKNYESIDVDERAVMRKALLQLCERLEARCLNSLQMFRLASTMPRAYTERRADIYSLANPHRDALVTPVQLRRCIEEVLGGNPSPREMDALLSFFFPQLPLEEYRSRRDGDLEHALDLKAFQKKYHEMNKLLMLSEPSKQQQQTQQRQQE”, for which the “soluble on expression in E. coli” value is “soluble”.

Turning to “MLTRSMVLVNEAWWVEPLPVHWVDKLVAELEAKLQNRGKDEYIFNGGLSVSGLQHIGRLRGEVLLGEAVRRELEKRGFRVKQLLTLYTVDPWKGKDEQRREFPDPKAAERYVGWPLDRVPDPKGCHASWVDHFWSDFGPYIGVFTDGKIEVVTTRELYKGRLKEFITTMVLPRRDEIRRVINKYRGRKPYQEGWIPLEPRCARCGRIDSTEALEILGGERVRYRCSYCGYQGESSIEDSKLNWRIEWAGVWWSLGVDFEPYGKDHATPGGSRDSAAELARLLGFEPPEGVWYEWVSLRAGGREADMSSSGFTGITPREWLDIAHPQILRFIYFLHPPTRRVVVDLSEIPSYYSQYYRAERIYFGIEEASTVEETRYLARTYELSHPSNPPAKPPSQIPYSHAAIVAQVVGPERLWTDGLERLKRAGLLGHDEYSIRWAKELLEKAYKWARRYAPKHLKFEIPDSPPEDALRRIEKPDLLEKLAEVLESVEEWSEERIKQALVEFGEGMSSSERRRFYRDFYLAIVGRPEGPRAAPLLSLMDRGFVVDRLRKAANLSRELKGR”, the “soluble on expression in E. coli” value is listed as “soluble”.

In the case of “MGSSHHHHHHGKTIFVIVPTNEEQVAFLEALAKQDELNFDWQNPPTEPGQPVVILIPSDMVEWFLEMLKAKGIPFTVYVEEGGSENLYFQGGGGGGLSLPAFSPHCHSLRLGFHVFRKQRARTKTAAVAEQRGLRWTHTTARTAKSGWPPRGHTDTHTHTHTHTHITWEYASSGMTLVFEARRLPFGSISEVYAASIQPIVALHALDKLPLWDRCMLVAVLPVVQQRHSASAAAAPPSTVVRPSLTRNDSDNADAAAASLSSATVRAANHEERVNASPELAGAPSLEDVALALTIVRALDELEVVYDSSISTRAELEQQQQQQPSLPAASLAEAPRRAFKQPKKTSEELLMEQLLQERFTDTAPYLLESSDEGGENSADAAVDVAMCFTVKGESLGIGSATIFGGHGYHP”, the “soluble on expression in E. coli” value was “not soluble”.

For the sequence “MHVAMALADIDRVGGVVIIDPVVHPLTPKHPPNQAERGQIRADRCSTAVFAWLFHEWNATGRSALMRGLTCFAGNTNAQPKHPRRAFRDRLGSTGPRPPRLTVASTPSRQPHHRRILIVTKAKSGSVAPELDTPTDLPPQSVEKISTALNGLLADSFALYLKTKNFHWHISGRHFRDYHLLLDEQSAQILATTDDLAERVRKVGGTTLRSIGHISKLQSIQDNNDDYVPPREMLRELMNDNKKVAAAMRKAHEIVDECKDAASAGLLENFIDETEKRTWFLFEATRQEGANEA”, the “soluble on expression in E. coli” value is reported as “not soluble”.

On to “MNELTGADFKSATADDNKKLFIETYGCQMNVADSEVIASVMQMAGYSVAETLEEADAVFMNTCSIRDNAEQKILNRLEFFHSMKKKKKHLIVGVLGCMAERVKDDLIEHHHVDLVVGPDAYLTLPELIASVEAGEKAMNVELSTTETYRDVIPSRICGNHISGFVSIMRGCNNFCTYCIVPYTRGRERSRDVESILNEVADLVSKGYKEITLLGQNVNSYRFEKEGGEVVTFPMLLRLVAEAAPGIRVRFTTSHPKDMSDETLEVIAQVPNVCKHIHLPVQSGSSRILKLMNRKYTREWYLDRVAAIKRIVPDCGLTTDIFSGFHSETEEDHRESLSLMEACGYDAAFMFKYSERPGTYASKHLEDNVPEEIKVRRLNEIIALQNRLSAESNNRCIGKTYEVLVEGVSKRSRDQLFGRTEQNRVVVFDRGTHRIGDFVNVRITEASSATLKGEEVFSLEHHHHHH”, for which the “soluble on expression in E. coli” value was “not soluble”.

On to “GMSDIKKLGSSWIINWFFGFNQIPTNEDSSIYMKSVLTCAKADGVISPEEKDWALGFCASWGVADWVIEDLKTYEADEALEEVIARSPQVSMAQRDILLSAIWVSAADGELHEKEKAKIRKMATILGIKEEIVDQLEQLYYYEAALRQKRLNLLYPQKSPY”, for which the “soluble on expression in E. coli” value is “soluble”.

As to “MKQLNGGNVYRPTGKEKNLQAILNIHRHVIQNISPVTITAGKTLDIKIDNQSHILLITKGAIKVCRRIDSIVMGCGVSPMILGLVDAYADLYQLEENSDVFFIAETTCEYYPVPVKDFVEIADEKHLWRDISNILMYRIAFMTNRDRNLIGQDAYSQIKALLLELWSYPESSRFEINAQNFIQQRTGLSRSRIMQVLSELKAGDYIKILHGRLLELRNLPVSF”, the “soluble on expression in E. coli” value was “not soluble”.

With “MSLYSGYGYFYRGKFMKPFESHNKQLKILRRRGMEVPSSAKRDLENENYYNIINGYKDLFLELDVNGNFLVPDKYKQGTHFKEVFSLYKLDRKFRNVLLEYLLVFETHIKSRISYYFSEKYREPHSYLYFKNYSSDTSKTDSIVKMVATFSSVMSNRKNKPLKHYINTHNGVPLWILVNYLTLGNVSKMYSNLDDDLRLEVAKDYKRKLERDYKTRVQITPSDVDSILQQAHMFRNVCAHEERLYDYKIDRAKSRANIFANYNKIYDKEYVPTMNGSYVFDLLISLCLFLNKHDYIKLVKNMDKLISNYSHSFYTITIDDLYTKMNFPDQTKILDMLEGHHHHHH”, the “soluble on expression in E. coli” value is “soluble”.

On to “YSSAYKEFIKKSMKYRTEEDTFTDANGLAGCRYWSPKNYEKIARMMAQPKYKPAFAYLFFFRSYVNDQQITSCVFQVQRDGMPESILVQPVLRDESSVTLE”, for which the “soluble on expression in E. coli” value was “not soluble”.
